T1: ACOX-1.1 (Caenorhabditis elegans, UniProt O62140)
T1 construct: pET-16b-acox-1.1a, expressed in E. coli and purified, homodimer
T1 sequence (O62140 1-674): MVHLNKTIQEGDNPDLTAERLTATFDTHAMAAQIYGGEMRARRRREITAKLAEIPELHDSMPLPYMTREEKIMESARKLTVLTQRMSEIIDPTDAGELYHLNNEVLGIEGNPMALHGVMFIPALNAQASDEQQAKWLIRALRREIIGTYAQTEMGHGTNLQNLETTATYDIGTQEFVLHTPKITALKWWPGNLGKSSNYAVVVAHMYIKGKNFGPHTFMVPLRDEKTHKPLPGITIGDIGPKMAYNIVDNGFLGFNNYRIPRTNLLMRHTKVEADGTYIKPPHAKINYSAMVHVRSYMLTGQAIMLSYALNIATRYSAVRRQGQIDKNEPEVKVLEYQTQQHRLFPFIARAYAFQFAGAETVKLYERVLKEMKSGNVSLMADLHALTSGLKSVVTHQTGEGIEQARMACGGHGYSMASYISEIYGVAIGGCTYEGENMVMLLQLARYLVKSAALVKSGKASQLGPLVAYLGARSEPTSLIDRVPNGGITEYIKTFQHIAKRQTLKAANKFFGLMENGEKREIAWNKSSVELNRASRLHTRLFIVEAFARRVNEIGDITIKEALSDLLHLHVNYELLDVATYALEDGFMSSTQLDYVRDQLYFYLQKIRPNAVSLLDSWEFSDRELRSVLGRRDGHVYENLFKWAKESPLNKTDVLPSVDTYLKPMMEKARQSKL


Columns and labels:
ACOX-1.1 = molecular target: T1, ACOX-1.1; test: LC-MS assay with MAOC-1, DHS-28, DAF-22; peroxidase-coupled H2O2 assay; format: biochemical; conditions: LC-MS: 40 μM substrate, 20 μM FAD, 20 μM NAD+, 200 μM CoA, pH 7.5, 30 °C; coupled: 24 µM substrate, ~23 °C
purified protein = substrate: C[C@H](CCCCCCC(=O)O)O[C@@H]1O[C@@H](C)[C@H](OC(=O)c2c[nH]c3ccccc23)C[C@H]1O; test: purified protein; format: biochemical, Caenorhabditis elegans; conditions: 7.5 mM ATP, 1 mM CoA, 10 mM MgCl2, 1.6 mM Triton X-100, pH 7.4, 22 °C

Row | Molecule | LC-MS assay with MAOC-1, DHS-28, DAF-22; peroxidase-coupled H2O2 assay (ACOX-1.1) | Km (purified protein) | kcat (purified protein)
1 | C[C@H](CCCCCCC(=O)SCCNC(=O)CCNC(=O)[C@H](O)C(C)(C)COP(=O)(O)OP(=O)(O)OC[C@H]1O[C@@H](n2cnc3c(N)ncnc32)[C@H](O)[C@@H]1OP(=O)(O)O)O[C@@H]1O[C@@H](C)[C@H](OC(=O)c2c[nH]c3ccccc23)C[C@H]1O [IC-asc-C9-CoA] | It also showed activity towards IC-asc-C9-CoA, but less than towards IC-asc-C7-CoA |  | 
2 | ACS-7 (Caenorhabditis elegans) (protein, full-length from cDNA library, pET-22b (NdeI/XhoI), His-tagged, E. coli BL21(DE3), Ni-NTA and Superdex 200) MIFHGEQLENHDKPVHEVLLERFKVHQEKDPDNVAFVTAENEDDSLGFQQLGKKVLQISEWFVENGYKKGDVFLLASYNNWRCFAAALGAWRAGLIVSAAASQFTSFEMNYQIEDSQSQVILVDKHTLPVVQEACKNLKFVKQIISISANPPSPVIKFDVLTSRLVRNLKMPLIDPKNDIVFLPYSSGTTGKPKGVMISHLNFSMMLESSLRFFDANAKAIGLPPDFVLPYDLHFLPMYHAMGMFRTLLTSYRGTTQIMFTKFDMELMLKNIEKYSIMVLSLVPAIAVRMLNSPLLQKYDVSSLVSVTVGSAPFPESASKKLKQLLPNVNIVQGYGMTELTFATHLQSPGSPDGSVGRLVPGTSMKVKKEDGTLCGPHEIGELWIKGPQMMKGYWKKEQQTNELLDEHGFMRTGDIVYFDKNGETFICDRIKELIKVNAKQVAPAELESVILEHDDVADVCVFGVDDASSGERPVACVVSKRGRDMETSKAIMKHINQKLARYKHIKEIEFVSEIMRTGTGKLLRRAMKKAFLDAKKAKL |  | 14.5 ± 3.0 µM | 0.53 ± 0.08 s⁻¹
